Laboratory results taken from patent publication US20030223975, “Transcriptional regulation of PTP-1B” (Cold Spring Harbor Laboratory, published 2003).

Assays:
[1] = molecular target: T1, YB-1 (B-TEP, purified from Rat1 nuclear extract) (Rattus norvegicus, UniProt P62961 SEQ:1-322); assay: EMSA; 10 ng YB-1; complex supershifted by anti-YB-1; anti-GATA1/GATA2 as controls; 25 C; details: label: 32P (EMSA) or biotin (pull-down)
Procedure: To further examine the interaction of YB-1 with the PTP1B enhancer, an EMSA was performed using purified YB-1 (10 ng) and the double-stranded DNA ³²P-labelled −155/−132 probe (see methods described above). A YB-1/DNA probe complex was detected by incubating the complex with the anti-YB-1 antibody (see above). Included as controls were anti-GATA1 (sc266X) and anti-GATA2 (sc-9008X) antibodies (Santa Cruz Biotechnology, Inc., Santa Cruz, Calif.). Purified YB-1 was incubated without antibody or separately with each antibody for 1 hour at 4° C., followed by addition of the DNA probe for 20 minutes at 25° C.

GST-YB-1 = GST-YB-1 (UniProt P67809 P67809:1-324); assay: EMSA; 1 or 10 ng GST-YB-1; binding shown in figure; details: tags: N-terminal GST fusion, expressed in E. coli BL21 (plasmid gift of K. Kohno)
GST-YB-1, sequence (P67809 whole entry, the tested form may be a part, one chain of several): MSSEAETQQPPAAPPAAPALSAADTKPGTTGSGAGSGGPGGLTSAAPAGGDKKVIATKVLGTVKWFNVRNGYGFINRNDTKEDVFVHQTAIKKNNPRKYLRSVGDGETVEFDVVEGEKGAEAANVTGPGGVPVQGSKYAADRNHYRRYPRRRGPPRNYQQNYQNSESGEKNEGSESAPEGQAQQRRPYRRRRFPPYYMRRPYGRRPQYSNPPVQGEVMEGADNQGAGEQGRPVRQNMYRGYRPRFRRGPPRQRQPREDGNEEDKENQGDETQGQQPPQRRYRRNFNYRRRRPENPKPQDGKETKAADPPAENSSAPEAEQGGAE
Description: Complex formation of YB-1 with the PTP1B enhancer was confirmed using purified YB-1 from a different source. Expression plasmids for GST and for GST-YB-1 (gift from Dr. K. Kohno) (see Izumi et al., Nucleic Acids Res. 29:1200-07 (2001)) were each separately transfected into E. coli BL21 cells. Recombinant proteins were expressed and purified (see Frangioni and Neel, Anal. Biochem. 210:179-87 (1993)) and analyzed by SDS-PAGE as shown in FIG. 9B (left panel). The interaction between GST-tagged YB-1 and the PTP1B enhancer probe was analyzed by EMSA. Purified GST or GST-YB-1 proteins (1 or 10 ng) were combined with double-stranded DNA ³²P-labelled probe −167/−132 (see above) in the absence or presence of unlabeled double-stranded DNA probe −167/−132 or the deletion mutant probe −167/−132 (Δ−155/−144) (see above), which were tested as competitors of complex formation.

[2] = molecular target: T1, YB-1 (B-TEP, purified from Rat1 nuclear …); assay: pulldown; purified on -167/-132 affinity column, eluted at 0.8 M NaCl; complex B in EMSA
Procedure: To purify proteins within the TEP sequence complexes, nuclear extracts were subjected to SP-Sepharose chromatography followed by DNA-affinity chromatography (FIG. 3A). Nuclear extracts (approximately 50 mg) were obtained from Rat1 cells as described above. The extracts were dialyzed against starting buffer (0.1 M NaCl in 20 mM HEPES pH 7.9, 20 mM NaF, 1 mM Na₃VO₄, 1 mM Na₄P₂O₇, 0.125 μM okadaic acid, 1 mM EDTA, 1 mM EGTA, 1 mM DTT, 0.5 mM PMSF, 1 μg/ml leupeptin, 1 μg/ml aprotinin, 1 μg/ml pepstatin, 0.2% NP-40, 5% glycerol) and then applied to SP Sepharose (20 ml) (Pharmacia Biotech, Piscataway, N.J.) equilibrated with the starting buffer. Proteins were eluted in a stepwise manner with 0.2, 0.3, 0.4, 0.6, and 0.8 M NaCl containing nuclear extraction buffer. Each fraction (5 μl aliquots) was assayed by EMSA using ³²P-labelled probes as described above. Fractions containing Complex B (detected by the ³²P-labeled −167/−132 probe, see FIG. 2B) were dialyzed to 0.2 M NaCl containing starting buffer and then applied to a double-stranded DNA-conjugated affinity column. The sequence of the DNA used for affinity chromatography corresponded to nucleotides −167 to −132 from the transcription start site as follows:
The DNA was biotinylated according to standard methods. […]

T1 sequence (P62961 other isoform, or with tags, fused parts or gaps): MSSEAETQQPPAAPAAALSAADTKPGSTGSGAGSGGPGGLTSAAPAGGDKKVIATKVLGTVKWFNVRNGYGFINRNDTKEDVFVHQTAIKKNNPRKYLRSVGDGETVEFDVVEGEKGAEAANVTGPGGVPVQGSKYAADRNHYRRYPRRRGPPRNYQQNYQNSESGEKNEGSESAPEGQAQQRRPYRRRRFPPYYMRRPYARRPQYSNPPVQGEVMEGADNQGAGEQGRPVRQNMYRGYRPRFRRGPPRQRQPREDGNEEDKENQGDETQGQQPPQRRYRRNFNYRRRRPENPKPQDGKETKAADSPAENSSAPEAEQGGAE

B1: PTP1B enhancer -155/-132 (dsDNA)
DNA 1: AGATATCTCGCGGTGCTGGGGCCA
DNA 2: TGGCCCCAGCACCGCGAGATATCT
B1: binds [1].

B2: PTP1B enhancer -167/-132 (dsDNA)
DNA 1: ACGCGCGCTATTAGATATCTCGCGGTGCTGGGGCCA
DNA 2: TGGCCCCAGCACCGCGAGATATCTAATAGCGCGCGT
B2: binds (GST-YB-1); binds [2].
